# Experimental data published in US8796183B2, “Template fixed beta-hairpin loop mimetics and their use in phage display” (Polyphor Ltd., priority 2003, dated 2014).
# Positions of bridges follow the written chain, without caps; N, C: chain ends. No end group written: not given here.
# Experiment: Circular dichroism
# Assay type: physicochemical
# Settings: linear precursor of the compound (before disulfide bridge formation), 10^−4 M in water as TFA salt, room temperature (FIG. 7)
# Text: Circular dichroism measurements are sensitive to the secondary structure of both peptides and proteins and have been extensively used to examine the conformation of both (M. Jourdan, S. R. Griffiths-Jones, M. S. Searle, Eur. J. Biochem. 2000, 267, 3539-3548; J. T. Pelto, L. R. Mc. Lean, Analytical Biochemistry, 2000, 277, 167-176).
# Circular Dichroism spectra were obtained on a Jasco J-715 spectropolarimeter, equipped with a spectra manager for windows 95/NT. Version 1.52.01 [Build2]. All measurements were performed at room temperature in quartz cells of 0.1 cm path length in water. Spectra were recorded with a 1 nm bandwidth, five scans were collected to improve the signal-to-noise ratio and the solvent baseline was recorded and subtracted from the spectra of the samples. All CD spectra were smoothed (with the same value), and are reported as molecular ellipticity units (Mol. Ellip.) of peptide residue.
# Measurement parameters: Band width: 1.0 nm, response: 1 s, sensitivity: standard, measurement range: 240-190 nm, data pitch: 0.5 nm, scanning speed: 50 nm/min. Concentration of the linear deprotected, purified peptide solutions: 10^−4 M in water as TFA salts. The pH and purity of the linear deprotected, purified peptides as precursors of the following examples were: Example 3: pH 6.38, purity 91%; Example 4: pH 6.77, purity 89%; Example 5: pH 6.01, purity 98%; Example 9: pH 6.00, purity 94%.
row,Substance,CD-spectrum: secondary structure content
1,"Example 5: Ac-NH-Cys-Thr-Lys-Trp-Phe-Leu-Ala-His-Tyr-Ala-Thr-Cys-H, cysteines linked by a disulfide bridge; reference not having a template (Ac-CTKWFLAHYATC; disulfide 1-12 (inferred); also: C-terminus written as -H)",high content of coil- and α-helix structure and traces of a β-sheet structure
2,"Example 4: Ac-NH-Glu-Thr-Cys-Thr-Lys-Trp-Phe-Ser-Asn-His-Tyr-Gln-Thr-Cys-Thr-Lys-H, cysteines linked by a disulfide bridge (Ac-ETCTKWFSNHYQTCTK; disulfide 3-14 (inferred); also: C-terminus written as -H)",high content of a β-sheet structure
3,"Example 3: Ac-NH-Cys-Thr-Lys-Trp-Phe-Ser-Asn-His-Tyr-Gln-Thr-Cys-H, cysteines linked by a disulfide bridge; reference not having a template (Ac-CTKWFSNHYQTC; disulfide 1-12 (inferred); also: C-terminus written as -H)",mixture of a coil structure and a β-sheet structure
4,"Example 9: Ac-NH-Glu-Thr-Cys-Thr-Lys-Trp-Phe-Leu-Ala-His-Tyr-Ala-Thr-Cys-Thr-Lys-H, cysteines linked by a disulfide bridge (Ac-ETCTKWFLAHYATCTK; disulfide 3-14 (inferred); also: C-terminus written as -H)",high content of β-sheet structure and a β-turn structure
